The results in this text go back to PMC11667269 (Journal for Immunotherapy of Cancer, 2024).

In test [1] the target is human CD79b (hCD79b) immobilised for surface plasmon resonance (Homo sapiens, UniProt P40259). Put plainly: SPR. A general note: Surface plasmon resonance follows binding to a sensor surface in real time, without labels.
The target in test [2] is CD19 expressed on K562 cells (K562-CD19) (Homo sapiens, UniProt P15391). Nature of the test: flow cytometry on cells. (In general: A flow cytometer gives signals particle by particle.)
Sequence of CD19 expressed on K562 cells (K562-CD19) (P15391 20-556): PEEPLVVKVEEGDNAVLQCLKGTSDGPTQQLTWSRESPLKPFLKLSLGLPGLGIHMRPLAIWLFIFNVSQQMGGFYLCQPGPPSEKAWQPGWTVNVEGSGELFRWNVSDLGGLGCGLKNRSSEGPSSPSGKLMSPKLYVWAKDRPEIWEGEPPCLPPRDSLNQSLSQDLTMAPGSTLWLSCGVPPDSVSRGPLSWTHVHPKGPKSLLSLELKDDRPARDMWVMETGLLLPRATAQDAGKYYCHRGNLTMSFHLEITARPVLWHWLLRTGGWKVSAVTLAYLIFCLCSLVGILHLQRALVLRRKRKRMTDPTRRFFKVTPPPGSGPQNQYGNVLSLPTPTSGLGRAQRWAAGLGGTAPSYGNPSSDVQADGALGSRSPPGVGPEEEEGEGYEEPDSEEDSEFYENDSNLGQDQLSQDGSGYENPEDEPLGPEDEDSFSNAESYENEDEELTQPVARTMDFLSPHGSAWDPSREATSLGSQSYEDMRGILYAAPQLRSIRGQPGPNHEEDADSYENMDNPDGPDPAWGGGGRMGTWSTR

Sequence of human CD79b (hCD79b) immobilised for surface plasmon resonance (P40259 29-229): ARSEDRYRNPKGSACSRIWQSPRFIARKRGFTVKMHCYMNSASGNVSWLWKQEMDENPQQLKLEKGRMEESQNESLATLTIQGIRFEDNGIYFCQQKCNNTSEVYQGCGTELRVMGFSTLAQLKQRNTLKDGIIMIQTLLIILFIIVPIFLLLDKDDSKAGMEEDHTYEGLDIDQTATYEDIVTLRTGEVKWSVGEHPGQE

B1: CARLY2 monoclonal murine antibody against CD79b (mouse monoclonal IgG1 CD79b.1.50) (antibody, V domains shown)
VH: QVQLQQPGAELVRPGASVKLSCKASGYTFTTYWMNWVKQRPGQGLEWIGMIDPSDSETHYNQMFKDKATLTVDKSSTTAYMQLSSLTSEDSAVYYCARTLSYWGQGTLVTVSA
VL: not shown
As to B1, the binding result in test [1] is on record as “binds”; in test [2] it was “no binding”.
